Tested on: Escherichia coli TOP10
Assay: shrunken log2 fold change of peptide-encoding DNA abundance (4.5 h post-induction vs induction); higher = less antimicrobial activity (less host growth inhibition)
Settings: time post-induction: 4.5 h; library: site-saturation at positions 5, 18, 19, 20
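Further: peptides expressed intracellularly from a pBAD plasmid library in pooled LB shake-flask culture, induced with 0.3% L-arabinose, DNA abundance read by NGS, three biological replicates, DESeq2 with apeglm shrinkage.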

Going from RRIRFRPPRLPRPRPRPNLYPRP to RRIRFRPPRLPRPRPRPNMMPRP, the “shrunken log2 fold change” value rises from -0.716 to -0.444.

Compared with RRIRFRPPRLPRPRPRPNMPPRP, RRIRFRPPRLPRPRPRPNMYPRP is lower in “shrunken log2 fold change” value: -0.443 for the first, -0.712 for the second.

Going from RRIRFRPPRLPRPRPRPNNMPRP to RRIRFRPPRLPRPRPRPNQFPRP, the “shrunken log2 fold change” value rises from -0.699 to -0.0599.

Compared with RRIRFRPPRLPRPRPRPNQNPRP, RRIRFRPPRLPRPRPRPNQVPRP is lower in “shrunken log2 fold change” value: -0.443 for the first, -1.05 for the second.

Compared with RRIRFRPPRLPRPRPRPNQYPRP, RRIRFRPPRLPRPRPRPNREPRP is higher in “shrunken log2 fold change” value: -1.01 for the first, -0.181 for the second.

RRIRFRPPRLPRPRPRPNSSPRP and RRIRFRPPRLPRPRPRPNTPPRP are within 0.2 log units of each other in “shrunken log2 fold change” value: -0.247 for the first, -0.263 for the second.

Compared with RRIRFRPPRLPRPRPRPNTYPRP, RRIRFRPPRLPRPRPRPNVRPRP is higher in “shrunken log2 fold change” value: -0.499 for the first, 0.0987 for the second.

RRIRFRPPRLPRPRPRPNWDPRP and RRIRFRPPRLPRPRPRPNYGPRP are within 0.2 log units of each other in “shrunken log2 fold change” value: -0.269 for the first, -0.125 for the second.

Compared with RRIRFRPPRLPRPRPRPPACPRP, RRIRFRPPRLPRPRPRPPDMPRP is lower in “shrunken log2 fold change” value: 0.628 for the first, -0.147 for the second.

Compared with RRIRFRPPRLPRPRPRPPENPRP, RRIRFRPPRLPRPRPRPPFNPRP is lower in “shrunken log2 fold change” value: 0.102 for the first, -0.245 for the second.

RRIRFRPPRLPRPRPRPPFPPRP and RRIRFRPPRLPRPRPRPPHGPRP are within 0.2 log units of each other in “shrunken log2 fold change” value: 0.454 for the first, 0.364 for the second.

Going from RRIRFRPPRLPRPRPRPPINPRP to RRIRFRPPRLPRPRPRPPKLPRP, the “shrunken log2 fold change” value rises from -0.406 to 0.0996.

RRIRFRPPRLPRPRPRPPLEPRP and RRIRFRPPRLPRPRPRPPMAPRP are within 0.2 log units of each other in “shrunken log2 fold change” value: 0.288 for the first, 0.277 for the second.

Compared with RRIRFRPPRLPRPRPRPPPDPRP, RRIRFRPPRLPRPRPRPPQMPRP is lower in “shrunken log2 fold change” value: 1.3 for the first, 0.333 for the second.

RRIRFRPPRLPRPRPRPPRPPRP and RRIRFRPPRLPRPRPRPPTKPRP are within 0.2 log units of each other in “shrunken log2 fold change” value: 0.905 for the first, 0.709 for the second.

Compared with RRIRFRPPRLPRPRPRPPTVPRP, RRIRFRPPRLPRPRPRPPVEPRP is lower in “shrunken log2 fold change” value: 0.499 for the first, 0.143 for the second.

RRIRFRPPRLPRPRPRPPVIPRP and RRIRFRPPRLPRPRPRPPWDPRP are within 0.2 log units of each other in “shrunken log2 fold change” value: 0.0684 for the first, 0.195 for the second.

Compared with RRIRFRPPRLPRPRPRPPWLPRP, RRIRFRPPRLPRPRPRPPYVPRP is lower in “shrunken log2 fold change” value: 0.509 for the first, -0.36 for the second.

RRIRFRPPRLPRPRPRPQANPRP and RRIRFRPPRLPRPRPRPQATPRP are within 0.2 log units of each other in “shrunken log2 fold change” value: -0.0788 for the first, -0.248 for the second.

Going from RRIRFRPPRLPRPRPRPQDHPRP to RRIRFRPPRLPRPRPRPQENPRP, the “shrunken log2 fold change” value rises from -0.391 to 0.133.

RRIRFRPPRLPRPRPRPQFTPRP and RRIRFRPPRLPRPRPRPQFVPRP are within 0.2 log units of each other in “shrunken log2 fold change” value: -0.362 for the first, -0.434 for the second.

First: RRIRFRPPRLPRPRPRPQFWPRP
Second: RRIRFRPPRLPRPRPRPQGMPRP
The “shrunken log2 fold change” value of the first is higher: 0.206 for the first, -0.0535 for the second.

Going from RRIRFRPPRLPRPRPRPQHNPRP to RRIRFRPPRLPRPRPRPQINPRP, the “shrunken log2 fold change” value rises from -0.781 to -0.239.

Going from RRIRFRPPRLPRPRPRPQIYPRP to RRIRFRPPRLPRPRPRPQKKPRP, the “shrunken log2 fold change” value rises from -1.01 to -0.0897.

RRIRFRPPRLPRPRPRPQLQPRP and RRIRFRPPRLPRPRPRPQLSPRP are within 0.2 log units of each other in “shrunken log2 fold change” value: 0.0569 for the first, -0.0854 for the second.

Going from RRIRFRPPRLPRPRPRPQLWPRP to RRIRFRPPRLPRPRPRPQMDPRP, the “shrunken log2 fold change” value falls from 0.338 to 0.0317.

Compared with RRIRFRPPRLPRPRPRPQPFPRP, RRIRFRPPRLPRPRPRPQPYPRP is lower in “shrunken log2 fold change” value: -0.0783 for the first, -0.34 for the second.

Going from RRIRFRPPRLPRPRPRPQQNPRP to RRIRFRPPRLPRPRPRPQRKPRP, the “shrunken log2 fold change” value falls from 0.383 to 0.089.

RRIRFRPPRLPRPRPRPQTDPRP and RRIRFRPPRLPRPRPRPQTGPRP are within 0.2 log units of each other in “shrunken log2 fold change” value: -0.21 for the first, -0.152 for the second.

Going from RRIRFRPPRLPRPRPRPQTWPRP to RRIRFRPPRLPRPRPRPQVIPRP, the “shrunken log2 fold change” value rises from -0.743 to -0.364.

RRIRFRPPRLPRPRPRPQVNPRP and RRIRFRPPRLPRPRPRPQVWPRP are within 0.2 log units of each other in “shrunken log2 fold change” value: -0.0623 for the first, 0.135 for the second.

Going from RRIRFRPPRLPRPRPRPQWNPRP to RRIRFRPPRLPRPRPRPQYPPRP, the “shrunken log2 fold change” value rises from -0.345 to 0.041.

RRIRFRPPRLPRPRPRPQYQPRP and RRIRFRPPRLPRPRPRPQYRPRP are within 0.2 log units of each other in “shrunken log2 fold change” value: -0.118 for the first, -0.171 for the second.

RRIRFRPPRLPRPRPRPRCTPRP and RRIRFRPPRLPRPRPRPRDQPRP are within 0.2 log units of each other in “shrunken log2 fold change” value: 0.0551 for the first, 0.0987 for the second.

RRIRFRPPRLPRPRPRPREVPRP and RRIRFRPPRLPRPRPRPRFCPRP are within 0.2 log units of each other in “shrunken log2 fold change” value: 0.199 for the first, 0.00666 for the second.

Compared with RRIRFRPPRLPRPRPRPRFLPRP, RRIRFRPPRLPRPRPRPRGEPRP is higher in “shrunken log2 fold change” value: -0.421 for the first, 0.125 for the second.

RRIRFRPPRLPRPRPRPRHEPRP and RRIRFRPPRLPRPRPRPRHGPRP are within 0.2 log units of each other in “shrunken log2 fold change” value: 0.197 for the first, 0.155 for the second.

For RRIRFRPPRLPRPRPRPRHQPRP, the “shrunken log2 fold change” value was 0.0747.
